# Measurements as given in publication PMC9719539, “Single-molecule characterization of subtype-specific β1 integrin mechanics” (Nature Communications, 2022).
# Columns and labels:
# [1] = molecular target: integrin α5β1, intact, on wild type K562 cells (human (endogenous in K562)) (UniProt P08648); experiment: flow cytometry on cells; saturation binding of cRGDfK-TF5WS to K562 cells in L15 with 2 µM 12G10 Fab, which stabilizes the EO state (intrinsic affinity for the EO state); no washing
# [2] = molecular target: integrin αVβ3, intact, on K562 αVβ3 stable transfectants (human) (UniProt P06756); experiment: flow cytometry on cells; saturation binding of cRGDfK-TF5WS to K562 transfectants in L15 medium with 1% BSA and 1 mM Mn2+, no washing; background MFI measured with 10 mM EDTA and subtracted
# [3] = molecular target: integrin αVβ5, intact, on K562 αVβ5 stable transfectants (human) (UniProt P06756); experiment: as above
# Chain of integrin αVβ5, intact, on K562 αVβ5 stable transfectants (human) (P06756 31-1048, chain 1 of 2): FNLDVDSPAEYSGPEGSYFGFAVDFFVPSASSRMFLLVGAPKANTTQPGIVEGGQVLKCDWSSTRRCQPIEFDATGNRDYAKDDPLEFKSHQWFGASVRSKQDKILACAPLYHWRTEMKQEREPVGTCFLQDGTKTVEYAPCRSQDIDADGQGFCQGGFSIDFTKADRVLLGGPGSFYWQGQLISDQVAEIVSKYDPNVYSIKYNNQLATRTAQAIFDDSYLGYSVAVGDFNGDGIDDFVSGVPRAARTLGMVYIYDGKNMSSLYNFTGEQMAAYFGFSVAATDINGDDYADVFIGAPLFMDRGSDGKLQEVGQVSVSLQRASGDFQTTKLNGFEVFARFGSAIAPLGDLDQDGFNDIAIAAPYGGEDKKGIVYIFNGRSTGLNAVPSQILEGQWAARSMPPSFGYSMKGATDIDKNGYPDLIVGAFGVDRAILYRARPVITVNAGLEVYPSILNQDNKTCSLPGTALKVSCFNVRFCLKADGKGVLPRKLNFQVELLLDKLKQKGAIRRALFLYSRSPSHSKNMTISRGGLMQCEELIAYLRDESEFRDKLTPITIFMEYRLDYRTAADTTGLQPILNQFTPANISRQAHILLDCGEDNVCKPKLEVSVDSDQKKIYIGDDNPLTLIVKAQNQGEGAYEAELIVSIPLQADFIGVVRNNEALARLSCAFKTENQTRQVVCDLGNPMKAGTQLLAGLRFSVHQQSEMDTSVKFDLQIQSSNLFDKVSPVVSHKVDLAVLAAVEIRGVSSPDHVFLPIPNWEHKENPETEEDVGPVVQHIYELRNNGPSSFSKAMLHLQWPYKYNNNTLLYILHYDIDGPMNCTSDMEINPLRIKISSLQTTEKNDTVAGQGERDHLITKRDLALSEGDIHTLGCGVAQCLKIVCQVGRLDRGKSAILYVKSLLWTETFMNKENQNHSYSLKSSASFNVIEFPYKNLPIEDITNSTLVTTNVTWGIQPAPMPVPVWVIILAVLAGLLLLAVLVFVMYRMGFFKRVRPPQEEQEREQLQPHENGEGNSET
# Chain of integrin αVβ5, intact, on K562 αVβ5 stable transfectants (human) (P18084 24-799, chain 2 of 2, further chain): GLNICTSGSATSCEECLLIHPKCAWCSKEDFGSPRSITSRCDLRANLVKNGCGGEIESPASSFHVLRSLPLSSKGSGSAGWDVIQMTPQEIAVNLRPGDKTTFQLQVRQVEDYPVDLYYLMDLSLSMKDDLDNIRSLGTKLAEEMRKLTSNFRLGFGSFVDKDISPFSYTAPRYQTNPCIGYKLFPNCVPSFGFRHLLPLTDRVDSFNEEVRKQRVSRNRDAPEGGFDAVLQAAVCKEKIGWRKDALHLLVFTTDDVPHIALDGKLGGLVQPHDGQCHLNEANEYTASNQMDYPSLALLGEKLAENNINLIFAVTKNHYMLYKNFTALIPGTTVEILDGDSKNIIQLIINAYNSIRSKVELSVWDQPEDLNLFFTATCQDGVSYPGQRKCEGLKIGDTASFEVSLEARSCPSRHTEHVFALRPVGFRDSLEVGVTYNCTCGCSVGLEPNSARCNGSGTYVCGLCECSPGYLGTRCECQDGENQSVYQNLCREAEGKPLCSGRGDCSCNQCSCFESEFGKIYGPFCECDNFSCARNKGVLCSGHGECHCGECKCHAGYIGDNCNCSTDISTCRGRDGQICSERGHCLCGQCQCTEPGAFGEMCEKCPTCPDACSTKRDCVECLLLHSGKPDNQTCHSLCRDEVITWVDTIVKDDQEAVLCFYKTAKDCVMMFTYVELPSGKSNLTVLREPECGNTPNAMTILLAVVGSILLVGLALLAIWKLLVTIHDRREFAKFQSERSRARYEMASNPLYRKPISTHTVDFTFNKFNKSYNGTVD
# Chain of integrin αVβ3, intact, on K562 αVβ3 stable transfectants (human) (P06756 31-1048, chain 1 of 2): as the sequence (P06756 31-1048, chain 1 of 2) above
# Chain of integrin αVβ3, intact, on K562 αVβ3 stable transfectants (human) (P05106 27-788, chain 2 of 2, further chain): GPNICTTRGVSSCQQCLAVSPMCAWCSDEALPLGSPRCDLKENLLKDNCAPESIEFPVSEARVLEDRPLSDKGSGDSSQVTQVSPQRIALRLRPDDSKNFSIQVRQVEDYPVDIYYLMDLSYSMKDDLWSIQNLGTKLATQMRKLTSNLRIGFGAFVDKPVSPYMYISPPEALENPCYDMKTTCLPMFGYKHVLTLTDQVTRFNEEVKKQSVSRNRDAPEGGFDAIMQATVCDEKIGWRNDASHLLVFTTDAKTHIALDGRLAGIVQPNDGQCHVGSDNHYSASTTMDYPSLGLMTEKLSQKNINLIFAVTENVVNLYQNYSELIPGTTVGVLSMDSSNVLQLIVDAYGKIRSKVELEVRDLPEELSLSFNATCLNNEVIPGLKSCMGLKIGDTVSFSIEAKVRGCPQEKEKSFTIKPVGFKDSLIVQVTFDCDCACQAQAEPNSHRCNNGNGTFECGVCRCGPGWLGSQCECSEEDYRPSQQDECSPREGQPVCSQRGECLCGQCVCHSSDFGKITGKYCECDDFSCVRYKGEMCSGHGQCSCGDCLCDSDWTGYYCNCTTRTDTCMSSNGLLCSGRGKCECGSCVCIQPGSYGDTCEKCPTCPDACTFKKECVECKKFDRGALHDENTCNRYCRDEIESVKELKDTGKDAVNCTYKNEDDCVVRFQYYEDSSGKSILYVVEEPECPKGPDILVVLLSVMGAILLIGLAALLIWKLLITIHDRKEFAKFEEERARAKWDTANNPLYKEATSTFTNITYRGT
# Chain of integrin α5β1, intact, on wild type K562 cells (human (endogenous in K562)) (P08648 42-1049, chain 1 of 2): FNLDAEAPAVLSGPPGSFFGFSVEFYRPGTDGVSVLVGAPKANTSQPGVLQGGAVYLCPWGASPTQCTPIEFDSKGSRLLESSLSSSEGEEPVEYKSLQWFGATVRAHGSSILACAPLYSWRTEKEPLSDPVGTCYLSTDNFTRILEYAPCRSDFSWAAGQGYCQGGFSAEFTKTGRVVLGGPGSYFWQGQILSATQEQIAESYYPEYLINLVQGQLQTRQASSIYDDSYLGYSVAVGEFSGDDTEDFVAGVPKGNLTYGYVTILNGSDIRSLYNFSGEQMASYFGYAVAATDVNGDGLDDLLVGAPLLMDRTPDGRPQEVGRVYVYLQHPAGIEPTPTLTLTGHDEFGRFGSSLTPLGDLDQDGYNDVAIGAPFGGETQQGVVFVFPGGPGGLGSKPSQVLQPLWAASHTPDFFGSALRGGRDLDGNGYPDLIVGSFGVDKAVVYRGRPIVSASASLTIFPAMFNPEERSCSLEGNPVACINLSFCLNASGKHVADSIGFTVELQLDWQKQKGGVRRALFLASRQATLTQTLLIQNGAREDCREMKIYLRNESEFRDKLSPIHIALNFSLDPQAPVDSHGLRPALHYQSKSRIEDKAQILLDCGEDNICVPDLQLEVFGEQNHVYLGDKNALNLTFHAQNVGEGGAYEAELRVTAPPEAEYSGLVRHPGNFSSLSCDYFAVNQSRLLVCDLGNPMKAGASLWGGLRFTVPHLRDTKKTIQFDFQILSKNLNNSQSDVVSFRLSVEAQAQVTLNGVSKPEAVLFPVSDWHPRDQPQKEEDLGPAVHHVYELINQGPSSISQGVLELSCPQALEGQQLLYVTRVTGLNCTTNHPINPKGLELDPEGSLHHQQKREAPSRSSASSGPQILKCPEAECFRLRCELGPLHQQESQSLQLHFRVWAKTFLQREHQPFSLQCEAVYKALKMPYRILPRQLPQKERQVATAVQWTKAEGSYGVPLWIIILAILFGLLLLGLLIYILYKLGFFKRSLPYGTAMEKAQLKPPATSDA
# Chain of integrin α5β1, intact, on wild type K562 cells (human (endogenous in K562)) (P05556 21-798, chain 2 of 2, further chain): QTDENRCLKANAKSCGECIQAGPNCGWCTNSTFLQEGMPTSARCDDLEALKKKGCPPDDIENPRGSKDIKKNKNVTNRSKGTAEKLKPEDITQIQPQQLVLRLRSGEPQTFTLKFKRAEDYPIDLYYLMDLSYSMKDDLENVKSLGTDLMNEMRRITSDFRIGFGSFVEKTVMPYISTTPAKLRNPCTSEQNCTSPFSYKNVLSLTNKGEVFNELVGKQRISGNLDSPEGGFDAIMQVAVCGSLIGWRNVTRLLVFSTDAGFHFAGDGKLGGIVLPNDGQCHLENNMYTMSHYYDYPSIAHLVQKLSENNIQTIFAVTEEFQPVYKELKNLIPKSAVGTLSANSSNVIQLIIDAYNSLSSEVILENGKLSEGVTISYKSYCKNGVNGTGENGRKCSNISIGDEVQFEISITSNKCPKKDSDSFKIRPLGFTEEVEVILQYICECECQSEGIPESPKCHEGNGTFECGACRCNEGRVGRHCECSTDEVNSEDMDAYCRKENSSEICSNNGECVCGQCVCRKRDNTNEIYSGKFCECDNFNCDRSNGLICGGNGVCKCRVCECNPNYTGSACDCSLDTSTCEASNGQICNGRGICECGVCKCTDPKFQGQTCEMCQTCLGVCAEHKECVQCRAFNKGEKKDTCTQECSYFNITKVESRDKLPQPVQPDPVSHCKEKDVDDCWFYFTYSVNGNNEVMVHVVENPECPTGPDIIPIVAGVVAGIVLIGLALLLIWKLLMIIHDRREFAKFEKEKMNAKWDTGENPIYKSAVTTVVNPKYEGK
substance,measurement,setting,value
cRGDfK peptide with lysine side chain conjugated with TideFluor5WS,Kd,[1],0.086 µM
same,Kd,[2],0.0283 µM
same,Kd,[3],0.0239 µM
